These results are taken from patent publication US20240238451A1.

Assay in all cases: cell-based or functional assay
The target in assay [1] is EGFP [GFP: P42212].
The target in assay [2] is ALFA-tagged GAL4-VP16.
The target in assay [3] is mCherry.

As for Gluc-biNIR-FbGFP fusion, in assay [1], the reduction of secreted Gluc signal with mTagBFP2 instead of EGFP (HeLa) was determined as 78%.

Regarding NIR-FbGFP-GAL4 fusion, in assay [1], the decrease of Gluc bioluminescent signal with mTagBFP2 instead of EGFP (GAL4/UAS reporter, HeLa) was found to be 25 fold and the reduction of mCherry reporter level in the absence of EGFP (pUAS-mCherry reporter) turned out to be 3 fold.

On to NIR-FbGFP-NbALFA (bispecific antibody), for which the reduction of Gluc signal without EGFP against EGFP-expressing cells (ALFA-GAL4, pUAS-Gluc, HeLa) in assay [2] amounted to 75%.

“NIR-FbmCherry-NbGFP fusion (bispecific antibody)” came in with a reduction in EGFP fluorescence in the absence of mCherry in assay [1] of 60%.

With biNIR-FbGFP-GAL4, in assay [1], the decrease of Gluc signal with mTagBFP2 instead of EGFP (GAL4/UAS reporter, HeLa) is 50 fold. In the case of “biNIR-FbGFP-NbALFA (bispecific antibody)”, the reduction of Gluc signal in the absence of EGFP (ALFA-GAL4, pUAS-Gluc, HeLa) in assay [2] is 85%. “bispecific NIR-FbGFP-NIR-FbmCherry fusion (bispecific antibody)” showed a drop of NIR fluorescence when only mCherry (no EGFP) is co-expressed in assay [1] of 10 fold. In addition, the drop of NIR fluorescence when only EGFP (no mCherry) is co-expressed in assay [3] came to 10 fold.
